This experiment concerns the target T1, A/California/04/2009 (H1CA0409) recombinant HA (Influenza A virus, A/California/04/2009 …, UniProt C3W5S1, strain).
T1 construct: source: supplied by BEI Resources
The experiment in a line: ELISA. The following applies: both partners purified. (In an ELISA, binding on a coated surface is turned into a signal by an enzyme label.)

Experimental findings from article PMC4006906 (PLoS Pathogens, 2014) are described below.

B1: F10 scFv (wild type) (scFv, V domains shown)
VH: QVQLVQSGAEVKKPGSSVKVSCTSSEVTFSSFAISWVRQAPGQGLEWLGGISPMFGTPNYAQKFQGRVTITADQSTRTAYMDLRSLRSEDTAVYYCARSPSYICSGGTCVFDHWGQGTLVTVSS
VL: QPGLTQPPSVSKGLRQTATLTCTGNSNNVGNQGAAWLQQHQGHPPKLLSYRNNDRPSGISERFSASRSGNTASLTITGLQPEDEADYYCSTWDSSLSAVVFGGGTKLTVL
notes: also called F10 wt; construct #1; source: E. coli BL21 (DE3), purified (streptactin beads)
Consider B1, for which the binding result is “binds”.
